{"source": "patent US20140234321", "proteins": {"B1": {"name": "Hunk (Hormonally Up-regulated, Neu-Tumor-Associated Kinase), mouse, 714-amino-acid ~80-kDa polypeptide (protein)", "chain": "MPAAAGDGLLGEPAAPGGDGGAEDTTRPAAACEGSFLPAWVSGVSRERLRDFQHHKRVGNYLIGSRKLGEGSFAKVREGLHVLTGEKVAIKVIDKKRAKKDTYVTKNLRREGQIQQMIRHPNITQLLDILETENSYYLVMELCPGGNLMHKIYEKKRLDEAEARRYIRQLISAVEHLHRAGVVHRDLKIENLLLDEDNNIKLIDFGLSNCAGILGYSDPFSTQCGSPAYAAPELLARKKYGPKIDVWSIGVNMYAMLTGTLPFTVEPFSLRALYQKMVDKAMNPLPTQLSTGAVNFLRSLLEPDPVKRPNIQQALANRWLNENYTGKVPCNVTYPNRISLEDLSPSVVLHMTEKLGYKNSDVINTVLSNRACHILAIYFLLNKKLERYLSGKSDIQDSICYKTQLYQIEKCRATKEPYEASLDTWTRDFEFHAVQDKKPKEQEKRGDFLHRPFSKKLDKNLPSHKQPSPSLITQLQSTKALLKDRKASKSGFPDKDSFVCRNLFRKTSDSNCVASSSMEFIPVPPPRTPRIVKKLEPHQPGPGSASILPKEEPLLLDMVRSFESVDREDHIELLSPSHHYRILSSPVSLARRNSSERTLSQGLLSGSTSPLQTPLHSTLVSFAHEEKNSPPKEEGVCSPPPVPSNGLLQPLGSPNCVKSRGRFPMMGIGQMLRKRHQSLQPSSERSLDASMSPLQPIAPSSLSFDMADGVKGQC"}}, "key": {"[1]": {"molecular_target": "myelin basic protein"}, "[2]": {"molecular_target": "histone H1"}}}
{"protein": "B1", "values": [{"measurement": "in vitro kinase assay of Hunk immunoprecipitates with [gamma-32P]ATP", "setting": "[1]", "value": "Hunk immunoprecipitates were able to phosphorylate both histone H1 and MBP in vitro"}, {"measurement": "in vitro kinase assay of Hunk immunoprecipitates with [gamma-32P]ATP", "setting": "[2]", "value": "Hunk immunoprecipitates were able to phosphorylate both histone H1 and MBP in vitro"}, {"measurement": "in vitro kinase assay of anti-Hunk immunoprecipitates with gamma-32P-ATP and histone H1", "setting": "[2]", "value": "Hunk-associated kinase activity was substantially greater in immunoprecipitates prepared from transgenic when compared with wild type mammary glands"}]}
